Test results as given in the domain aggregation screens of Martell et al. (2025).

Assay: soluble fraction after stress (log2 fold change); higher = more stays soluble; pooled small domains, quantitative proteomics
Settings: stress: pH 4
Outline: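 Aggregation propensity here comes from the fold change in the soluble amount of each small protein domain after acid stress, measured in pooled custom libraries by high-throughput quantitative proteomics. The acid stress was pH 4. On the log2 scale, higher values mean more of the domain stayed soluble.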

Sequence: HMFHFELNAAKQALEDRKTIDRAKGILMRQRGMSEDDAYKLLRTTAMSQNRKVIDVAQALVTAADLL
- soluble fraction (log2): 0.292

Sequence: HMFINTVELGRAIKRRREELGLSLRDVADVTNVSASTLSRIENGTGKPDADNIARLTGWLDMPIDRVM
- soluble fraction (log2): 0.164

Sequence: HMFIRINQTQNSPRKSVQIVESKRDGHKVRTKILRHVGIAMDDVELQKLKSLAQDIIAKMTVETENASKQ
- soluble fraction (log2): 0.176

Sequence: HMFKINQKVKLIAPLPYLKTSENMPMLRPPDLVAIDEIGEVLSLKSPETVEVRFRRGSFLIDIDKLEKVD
- soluble fraction (log2): -0.996

Sequence: HMFKYLLDTNIVIYVIKKRPIEVMGVFNQNANRMAISAITFSELQHGAEKSVRVQENLNAIEEFTTLIDI
- soluble fraction (log2): -0.537

Sequence: HMFKYRELLDWAKNRFDDLEVSIAPKALALLVESIGTDLRLLDSEIQKLSMYKPLEMISTNDVEDLVA
- soluble fraction (log2): -1.15

Sequence: HMFLTDHEVSKVARKRAHAEYLSSLSWRQRTFGDHGERSKNFEAWYKEHSHLYETEKLYKELYKN
- soluble fraction (log2): 0.245

Sequence: HMFLTPLEEARLVIEEIVIPKNIAVDLSPRPSALRKQQHELIAHYQLKSFSVGNERTKRLRILPKVI
- soluble fraction (log2): -0.46

Sequence: HMFMLQAKRVPVSELENFKGIVAEDVVSQSRALILPRGSNLSWLSSSAMQNLSTRLALEGVESISIYL
- soluble fraction (log2): -1.8

Sequence: HMFMVAGHLSEKNGYFYAVINYNDSLGNRKTKWMSTGLTVKGNKKRAEAILAEKRRTFQPDEPV
- soluble fraction (log2): 0.129

Sequence: HMFNDPTMEDALVNLKGITNEVLSYLSSSKIKKLEELAEMSVPELKDIVENISDDEASALIMEARKPWF
- soluble fraction (log2): -1.32

Sequence: HMFNEFEDIPDIISAEGIDPAMREEVAANLKKYYKNPDAMLALAPLEREYYEKLVGILSEKIELKKEN
- soluble fraction (log2): -0.361

Sequence: HMFNFPEEVRVQLAKSEQLRNLLIPMSETVRDALSGEELWFGRTIFNTTSKKIESWTNPGVWVE
- soluble fraction (log2): -1.28

Sequence: HMFNIIARQEIDEILYEYKIENSEDYKNRDPEELAEIYENIKTVQENHDLSDDDVEELLKSIFSDY
- soluble fraction (log2): -2.2

Sequence: HMFNKTKVPNFIDMNYYEEIEGNSEYDKFNFADPITKNDDTKAPGTVIDQTPEKGTRIDEEKTVIQLTIA
- soluble fraction (log2): -0.149

Sequence: HMFNRAVSDNEALQVREHFDRDATVMSLAKKYGVSTVTIQRILLGKTYRNVGGPLFDKATLKKRMGN
- soluble fraction (log2): 0.13

Sequence: HMFNVKAYEKAVKSYITKRKPLGEALDEEIMDELSVKFGIVDDALEDLFKQIQDAGISIVDKDGNPSPLAL
- soluble fraction (log2): -1.78

Sequence: HMFPELEPDEQLIADLLRKTNNLQINIITVRTGLPINRVTALLFQMEMKGVVRPLAGGTYHLLV
- soluble fraction (log2): -0.389

Sequence: HMFPELSPEEQLIVEVLSKTNDLQVNLISVKTNIDISRLTSLLFTLEMKGVIKTFAGGMYHLL
- soluble fraction (log2): -0.712

Sequence: HMFPSLSPEEQAVVDVLQRNNDLQINMLSVQSGLTISRLTALLFQLEMKGVIKPLAGGMYHLL
- soluble fraction (log2): -0.493

Sequence: HMFPTLSPEEQRIVDQLAKENDLQANVIALRTALTIPQISALLFSLEMKGMVRLYAGGTYHLI
- soluble fraction (log2): -0.142

Sequence: HMFQPEQISKLNELETLVLDFIIKSPDKVQKATIRSLATQLHVSTTTIVRMSTKLGFNGWSELKFFLKNQS
- soluble fraction (log2): -0.65

Sequence: HMFRDFSETLLRKLQAAGGFLPFTDKTDAEAIAEHFQVSKKTFKRAVGTLYKQRRILIDDEGITLIG
- soluble fraction (log2): 0.252

Sequence: HMFRPDYYEILQVDRHASPEVITAAYRQLLSIYNSEQDGNKQMIKLIQEAYGVLGDSQDRWLYDSWLDNN
- soluble fraction (log2): -1.37

Sequence: HMFRSNAERAAHLASALPRAEAELAALQARGAATSENIYLRSSYFDALRYTEELRAAKRAQDALQGA
- soluble fraction (log2): 0.0123

Sequence: HMFSAASSQISSYVRSVVDKAQTYEQAYEILAKNPLGFKLDALEDELFRIIANAEILGADDDE
- soluble fraction (log2): -1.24

Sequence: HMFSNATISGLKAGALVRVYNISGVAVSTLTADAEGKVSVDLNNLPKGVYILSTPSKSFKVLN
- soluble fraction (log2): 0.176

Sequence: HMFSWRQHLDHFGFSDEIKKRLADAVFLNDDWNEIDRGVLTKEELLARFIENDPGIEKEIYMVMENIN
- soluble fraction (log2): -1.78

Sequence: HMFYPIAHTLTKLNIRSGPGEQYQKLATFENNHDLVVLTQQNEWVQVRGKSDEQVIIGWVHSSFLSPT
- soluble fraction (log2): -1.33

Sequence: HMFYQLTENQRRILSSLEQNPRVSAAHLAEEIGISSRKVENNLKKLKEIGLLQRHGSPRKGYWSINQGW
- soluble fraction (log2): 0.15

Sequence: HMGAAAQLLHAVVLRVPAEDTMKFVSETPELRRYLGAPLGPTAALVRPGQEQELAAALQAHGILVEFDE
- soluble fraction (log2): 0.12

Sequence: HMGAAITEAEAKQIALDHAGVSESETERMRVKLGRDDGVQEYEVNFYVGNREYDYDINAATGEIRSHDSE
- soluble fraction (log2): 0.22

Sequence: HMGADPTTWPEIDAFVGRVAVTATGLFPSGQVEIDGRRFEARLAFGVAEPGARVVVRRRTDFGLLVEKETR
- soluble fraction (log2): -0.531

Sequence: HMGADRLVGMTAIVTATIDPNDTDRKGRVQVEGEVWSALSDGRLIITEGSKVRITEMHGTRVRVEAI
- soluble fraction (log2): -0.884

Sequence: HMGAEWTEMRVWTSTSGSKVTAEASSLTNGQVTLETKSGKRITLSIRKLVEADQKFLEAHFSK
- soluble fraction (log2): 0.101

Sequence: HMGAGLLEPEPLKIEIQETQERLQKLQKALERDTETADSKERIKRAIEAHKARISQLQGLIE
- soluble fraction (log2): 0.0704

Sequence: HMGAKVFTVPNLIGKYAIEAGIILKKEGLSEGEVKEENSDKYAAGQIIDQYPAADSPAKENDKINYVVSIG
- soluble fraction (log2): -0.0221

Sequence: HMGANSAYMAMRDRIQQRLLAELSPGVTRSDTAEVRRVVERIFNETTAELGLPLSRLERNDIFDLVLADIL
- soluble fraction (log2): -1.72

Sequence: HMGAPLAVGDSVRVVVSGPRAFVYTAPNGALSGAVRNGAAFTVLELSPDNTWARIGSGEWIKVEFLATG
- soluble fraction (log2): -0.373

Sequence: HMGATYSQFLDQVDGGNVQKVTFSGDMRSGTNQISYTTRSGQSATITAPMDRDLINILRAKNVEIVQEEP
- soluble fraction (log2): 0.22

Sequence: HMGAWQQTGFFRNRENAESLAEVLRQRGFSPVVREDTRPSGTVYYAVLVPDDGTTAARLKDAGIDSYPV
- soluble fraction (log2): 0.367

Sequence: HMGDDYFTILGIERDATTDEIRSAYRRLSKKIHPDAQGSSALFRQVQEAYETLIDPSSRARYVAELNASQG
- soluble fraction (log2): -0.0836

Sequence: HMGDERDRLLLARGKRIYQELIGSDRENVAAALREFEAVLAVNNRRAIHVMRQRLAELFGVYEEFLNEEFL
- soluble fraction (log2): -1.29

Sequence: HMGDEVAVTEILVKVGDTVEADQSLLTVEGDKASMEVPAPFAGVVKAIQVQLGDKVVTGSPIMLFEV
- soluble fraction (log2): -0.88

Sequence: HMGDFNYVMPDFRGLEAHDVSSFLNRNGFLLRPTEHEVSFTQRPGLILMHYPEPGYPFSRSSPITLVVS
- soluble fraction (log2): -0.932

Sequence: HMGDGMEVWVNGSPVNLTGKDSFIFVDIFDFIDFDLTASKGRLIVIKVNGEYAEYTRPLHNGDTIEIYWEE
- soluble fraction (log2): -0.638

Sequence: HMGDGRVGVITASIAYEYAKEVFPEGTSFLKLGLTFPLPMDLIRDFASKVEKLYVIEELEPL
- soluble fraction (log2): -1.72

Sequence: HMGDHYTALGLSIDATPEEIRSAYFLAARRSHPDANPDAQTTEWFLRVQEAYDILSNPRRRAEYDASLP
- soluble fraction (log2): -1.46

Sequence: HMGDKRPIAVGDYVKLEGQDTPGQVLSISGKNATVGFGMLKTTVKLDRLRHTMAKPQTGASAGVR
- soluble fraction (log2): ≥ 0.43

Sequence: HMGDKVTIPNLIDMKLTDAQNQYKPQGFSIVKNGERESDKEAGTILEQDKAAGTEISGKDIRIFVVVSSGS
- soluble fraction (log2): -0.302

Sequence: HMGDLAAAGNHTLEVMGFPQHPDESYRHFVGNGIPKLIERMLPAGHDKETEQKAYDIFMEYYSAHK
- soluble fraction (log2): -0.439

Sequence: HMGDPMAIMQLSSNTTPEYWEAYQKYHIQEYEQSNFIRYVNGISVLDDDFVDKVLITIDQHGRIFSELKS
- soluble fraction (log2): -2.5

Sequence: HMGDSEMPVSEVVRLAKLDQISSIEISGTKLTIITNNLETYTSRIEENSTIIEILQRAGVDIGGLEIYPHG
- soluble fraction (log2): -0.983

Sequence: HMGDVSGFLRGVLADGPVPAKTVFSEASGAGYSRDQIQRAARKIGVERRKTGMAGGWVWELEP
- soluble fraction (log2): -0.038

Sequence: HMGEAYVVPNVKNKTLGEAQLALHNQKLEGLVVDSSYVKGLPDGMILDQNPAGGARVKEGRTIYLTITTS
- soluble fraction (log2): -0.146

Sequence: HMGEDFPYVAYATDSVRLRSKPSSSGDILAVIRQGDAVLITGSDGNYKIVEYEGRKGYVISAFLSQTP
- soluble fraction (log2): -0.438

Sequence: HMGEDLTIDQLAAEVDMTVRNIRAHQARGLLPPPTIKGRIGYYGPLHRRRLQQIRAMQEEGLNLAAIAKVV
- soluble fraction (log2): -0.533

Sequence: HMGEDPYQMLGLTRQASDEEVRLAWRKLMRENHPDSLASRGVPQEFVKRATEQVAQINAAWDRIKRERG
- soluble fraction (log2): -0.0212

Sequence: HMGEELIEIQNLRNKERREAEAILKNLDLVPVIQEQFDDTVPINRVITTDPGPDSTVKKGTTVMIYVSKGP
- soluble fraction (log2): 0.289

Sequence: HMGEENLKYPLLTDGSVKTTVLEAIDKDEKWLREELAKQGYDDLSKLFLVDYLGGQLVVTPY
- soluble fraction (log2): -0.887

Sequence: HMGEESIAELISNPKLSDAKRTVILDLLSRGLTVDQIKPYIQSDDPYTAEQLQFELYKLFFTQI
- soluble fraction (log2): -1.34

Sequence: HMGEGRVRLAQEAANRFMTAMAGDRPGFEEAGRALFAGDRARFHAETEGWPEDIRDHARRLAEPALQ
- soluble fraction (log2): -0.0593

Sequence: HMGEIILVPDVKAQGVSDARYTLNQAGLDAVIADSSYNRNSPPGAVLEQMPAPGSKVKSGHAIYLIINTT
- soluble fraction (log2): 0.0604

Sequence: HMGELTSILVATKQIEPGETLSSSNTQVKSWISDLIPEGAITNPESVMGRTVSSVIGVGMPVVSLHLR
- soluble fraction (log2): 0.0354

Sequence: HMGELVIPPLRERTVVDAVAEAERLGFVVQVEPVASSLPEGRVLGQSPEPGTRARKSQVVVLQVSRG
- soluble fraction (log2): 0.00536

Sequence: HMGEPLTVVAAAGGDRLDRWLAGQLAGRSRAEIQRWIEAGQVTLAGRSLKASYRLSAGDAIDVAIPPPE
- soluble fraction (log2): -0.0638

Sequence: HMGEPVEIEEPITVRSLSEALGLKSSAIISHLMRQGVFATINQNLDKETAELIAAEYGIELRIK
- soluble fraction (log2): -0.0783

Sequence: HMGETDDDFRELEEFVEKTKFDKLGTFMYSKEEGTPAARLPEQIHGNTKKSRYNKIMSIQQKVSNEN
- soluble fraction (log2): -0.897

Sequence: HMGETPEILRDWEAAQNAVNDMLSKYAPGGYMGKIIYPLLTPLKERLEAGERTPDLYNAIVEAT
- soluble fraction (log2): -0.763

Sequence: HMGETYTIPDVRGYTLEDAMELPEIKENGFTIIEGRQIVDADVPVGQIISQTPEAESIAKSNVKEITVNIS
- soluble fraction (log2): -0.367

Sequence: HMGEVPVETKDGIKVHVHTVDKSQTAYGISRLYNITLNELYESNPEAKLELSIGQKLYFPVK
- soluble fraction (log2): -0.426

Sequence: HMGEVVRAPMPGNVLKMEVAQGQEVEEGDLLLVLEAMKMENDIVAPKGGIVIQLVVDKGMVVETDDPLVVI
- soluble fraction (log2): -0.509

Sequence: HMGEWNSVFSVPSSVVDKHLKTASSVYVKVLLVILRNAGNRISDQQISEQLSVPVDEVQEAIRYWNAAGIF
- soluble fraction (log2): -0.816

Sequence: HMGFAANLSRLMEYHNISMYRLAKEVGVHQTTVKNWLEEESEPKIAALEKIVGLLGVSYDELLG
- soluble fraction (log2): -1.72

Sequence: HMGFLTGNTQGEVNRKTKNQMVNIFLPTTPNPTSGFLLFVPKKDILRLTMTVEEGIKMIISAGMLTPS
- soluble fraction (log2): 0.0322
